T1: AP180 (rat (endogenous in rat brain …, UniProt Q05140 1-915))
T1 construct: AP180 (clathrin coat assembly protein), endogenous in rat brain synaptosomes; source: endogenous, rat brain synaptosome lysate
T1 sequence (looked up): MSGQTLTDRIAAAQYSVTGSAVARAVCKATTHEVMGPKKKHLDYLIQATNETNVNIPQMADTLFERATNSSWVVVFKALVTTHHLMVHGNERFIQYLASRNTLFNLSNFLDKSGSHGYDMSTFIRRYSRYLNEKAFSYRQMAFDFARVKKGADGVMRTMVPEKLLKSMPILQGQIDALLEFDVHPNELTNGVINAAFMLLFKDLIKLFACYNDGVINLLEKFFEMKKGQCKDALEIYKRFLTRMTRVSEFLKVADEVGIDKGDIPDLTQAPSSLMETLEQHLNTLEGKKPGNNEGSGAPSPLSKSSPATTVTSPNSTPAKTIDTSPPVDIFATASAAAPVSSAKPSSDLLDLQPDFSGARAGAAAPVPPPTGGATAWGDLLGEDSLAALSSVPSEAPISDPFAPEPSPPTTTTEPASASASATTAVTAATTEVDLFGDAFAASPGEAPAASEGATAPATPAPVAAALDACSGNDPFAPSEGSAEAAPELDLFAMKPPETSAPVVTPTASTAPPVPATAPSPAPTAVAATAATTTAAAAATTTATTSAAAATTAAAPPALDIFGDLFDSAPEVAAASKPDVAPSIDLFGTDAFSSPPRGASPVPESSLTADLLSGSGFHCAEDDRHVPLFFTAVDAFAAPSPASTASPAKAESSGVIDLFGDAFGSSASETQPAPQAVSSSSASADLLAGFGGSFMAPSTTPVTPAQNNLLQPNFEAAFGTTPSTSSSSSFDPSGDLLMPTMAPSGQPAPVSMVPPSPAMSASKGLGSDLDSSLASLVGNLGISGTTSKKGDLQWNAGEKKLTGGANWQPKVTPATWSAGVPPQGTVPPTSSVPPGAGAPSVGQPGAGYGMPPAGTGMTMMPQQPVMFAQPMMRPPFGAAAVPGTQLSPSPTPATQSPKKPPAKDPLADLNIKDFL

B1: stonin2 (natural protein, UniProt D4AB66 1-895, looked up)
chain: MTTLDHVIATHQSEWVSFSEEPLFPTPLEGGTEEHFPGLSSSSDRSESSSGENHAVDEGSQDLSHSEQDDSSEKMGLISEAASPPGSPVQPTPDLASAISNWVQFEDDTPWSNTSAPHKETALTLTVPCWTCPSLDSLRRCPLASESSWTTHSEDTSSPSVAPSYTDLQLINAEEQASGRASGTDSTDNSSSLQEDEEVEMETISWWAGSPAMNGHPAVPQVTTARFPSWVTFEDNEVGCPSPTVPSPKKPNAPSAATAGPDVPFNSTGSFKRDRPKSTLMNLSKVQKLDISSLNRPPSVTEAPPWRATNPFLNESLQDIQPSPINPFSAFFEEQERRSQNSSISGTSGKSQRDSLIVIYQDAISFDDSGKSQSHPDAIEKLKQLQIDDPDPVGNAALPDDDPTASVEPDAPSPTSALSQPRDGWPMMLRIPEKKNIMSSRHWGPIYIKLTDSGYLQLYYEQGLEKPFREFKLEICHEVSEPRLQNYDENGRIHSLRIDRVTYKEKKKYQPKPAVAHAAEREQVIKLGTTNYDDFLSFIHAVQDRLMDLPVQSMDLSTVGLNYLEEEITVDIRDEFSGTVSKGDNQILQHHVLTRIHILSFLSGLAECRLGLNDILIKGNEIVSRQDIMPTTTTKWIKLHECRFHGCVDEDVFNSSRVILFNPLDACRFELMRFRTVFAEKTLPFTLRTAASINGAEVEVQSWLRMSPGFSSNRDPLTQVPCENVMVRYPVPSEWVKNFRRESVLGEKSLKAKVNRGASFGSAGASGSEPVMRVTLGTAKYEHAFNSIVWRINRLPDKNSASGHPHCFFCHLELGSDREVPSRFANHVNVEFSMPTTSASKAAVRSISVEDKPDVRKWVNYSAHYSYKVEIEQKKSLKPDFEGEDLENPKECGVQ
notes: stonin 2, endogenous in rat brain synaptosomes; source: endogenous, rat brain synaptosome lysate

Columns and labels:
Experiment in all cases: co-IP; fractional recovery: immunoprecipitate from rat brain synaptosome lysate on beads split in three aliquots, 15 min on ice in RIPA buffer with 150, 650 or 1150 mM total salt; what stayed on the beads found by Western blot and densitometry; FR = recovery at 1150 mM / recovery at 150 mM, normalised to the FR of the IP-protein
[1] = biological target: stonin2 (rat (endogenous in rat brain synaptosomes)) (UniProt D4AB66)
stonin2 = biological target: B1; settings: partners not purified
heavy chain clathrin = biological target: T2, heavy chain clathrin (rat (endogenous in rat brain …, UniProt P11442 1-1675)); settings: partners not purified
T2 construct: clathrin heavy chain, endogenous in rat brain synaptosomes; also called H-clathrin; H-Cl; source: endogenous, rat brain synaptosome lysate

AP180 = biological target: T1, AP180; settings: partners not purified

T2 sequence (P11442 whole entry): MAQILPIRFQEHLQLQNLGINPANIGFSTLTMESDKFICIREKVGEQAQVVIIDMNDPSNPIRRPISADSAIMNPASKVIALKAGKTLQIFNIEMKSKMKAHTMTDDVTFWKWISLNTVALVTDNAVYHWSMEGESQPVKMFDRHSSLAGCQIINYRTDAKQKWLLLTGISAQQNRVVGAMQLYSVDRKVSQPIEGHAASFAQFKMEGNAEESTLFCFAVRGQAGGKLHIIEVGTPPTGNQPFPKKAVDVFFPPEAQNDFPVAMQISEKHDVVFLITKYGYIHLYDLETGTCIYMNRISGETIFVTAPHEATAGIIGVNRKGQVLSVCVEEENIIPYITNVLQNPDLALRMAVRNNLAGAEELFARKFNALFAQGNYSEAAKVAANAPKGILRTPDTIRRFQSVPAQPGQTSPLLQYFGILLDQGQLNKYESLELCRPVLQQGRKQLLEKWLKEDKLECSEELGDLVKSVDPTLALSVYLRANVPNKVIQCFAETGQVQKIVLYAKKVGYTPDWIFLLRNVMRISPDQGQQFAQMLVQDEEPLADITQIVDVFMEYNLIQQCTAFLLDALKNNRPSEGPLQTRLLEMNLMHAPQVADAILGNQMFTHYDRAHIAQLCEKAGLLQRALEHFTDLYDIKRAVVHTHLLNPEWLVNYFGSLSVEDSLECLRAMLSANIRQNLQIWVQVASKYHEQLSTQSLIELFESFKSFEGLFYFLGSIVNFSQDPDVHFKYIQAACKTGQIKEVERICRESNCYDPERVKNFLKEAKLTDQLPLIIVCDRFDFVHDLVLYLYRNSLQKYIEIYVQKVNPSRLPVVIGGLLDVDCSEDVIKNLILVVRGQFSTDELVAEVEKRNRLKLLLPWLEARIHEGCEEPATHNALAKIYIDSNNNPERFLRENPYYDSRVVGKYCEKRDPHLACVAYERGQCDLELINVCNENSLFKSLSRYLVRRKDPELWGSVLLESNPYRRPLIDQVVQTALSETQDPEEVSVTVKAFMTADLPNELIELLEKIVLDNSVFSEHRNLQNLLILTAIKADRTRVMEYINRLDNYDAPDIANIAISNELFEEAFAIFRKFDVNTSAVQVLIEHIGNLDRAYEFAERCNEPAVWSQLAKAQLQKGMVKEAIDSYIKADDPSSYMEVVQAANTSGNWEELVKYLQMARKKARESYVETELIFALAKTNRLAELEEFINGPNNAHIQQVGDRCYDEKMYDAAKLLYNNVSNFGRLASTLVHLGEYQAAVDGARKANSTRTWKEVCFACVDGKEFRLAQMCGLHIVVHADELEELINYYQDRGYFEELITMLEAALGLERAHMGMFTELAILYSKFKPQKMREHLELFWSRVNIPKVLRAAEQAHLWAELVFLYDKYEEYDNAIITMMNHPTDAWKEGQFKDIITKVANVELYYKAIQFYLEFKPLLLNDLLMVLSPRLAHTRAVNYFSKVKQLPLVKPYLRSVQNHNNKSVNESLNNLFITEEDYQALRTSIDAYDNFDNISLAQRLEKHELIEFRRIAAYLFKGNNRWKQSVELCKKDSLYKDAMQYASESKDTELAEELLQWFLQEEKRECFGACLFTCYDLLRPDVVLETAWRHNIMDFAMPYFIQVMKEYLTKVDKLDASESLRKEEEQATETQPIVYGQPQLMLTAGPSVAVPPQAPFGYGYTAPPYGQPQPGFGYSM

| Molecule | fractional recovery (FR; recovery at 1150 mM salt / recovery at 150 mM salt) [1] | fractional recovery (FR; recovery at 1150 mM salt / recovery at 150 mM salt) (stonin2) | other results |
| --- | --- | --- | --- |
| long-variant intersectin (natural protein) | 1 |  |  |
| light chain clathrin (from UniProt P08081 1-248) (natural protein) | 0.84 |  |  |
| short-variant intersectin (natural protein, UniProt Q9WVE9-1 1-1217, looked up, intersectin (intersectin 1 by the antibody's name Intersectin/ESE-1), short variant, told from the long variant by the size of its band; endogenous in rat brain synaptosomes; they are told apart only as bands on the blot; not checked; also called S-intersectin; S-Int; source: endogenous, rat brain synaptosome lysate) MAQFPTPFGGSLDIWAITVEERAKHDQQFQSLKPISGFITGDQARNFFFQSGLPQPVLAQIWALADMNKDGRMDQVEFSIAMKLIKLKLQGYQLPPALPPVMKQQPAAISSAPAFGIGGMAGMPPLTAVAPVPMGSIPVVGMSPPLVSSVPQAAVPPLANGAPPVIQPLPAFAHPAATLPKSSSFSRSGPGSQLNTKLQKAQSFDVASAPAAAEWAVPQSSRLKYRQLFNSHDKTMSGHLTGPQARTILMQSSLPQAQLASIWNLSDIDQDGKLTAEEFILAMHLIDVAMSGQPLPPVLPPEYIPPSFRRVRSGSGMSVISSSSADQRLPEEPSSEDEQQVEKKLPVTFEDKKRENFERGNLELEKRRQALLEQQRKEQERLAQLERAEQERKERERQEQERKRQLELEKQLEKQRELERQREEERRKEIERREAAKRELERQRQLEWERNRRQELLTQRNKDQEGIVVLKARRKTLEFELEALNDKKHQLEGKLQDIRCRLATQRQEIESTNKSRELRIAEITHLQQQLQESQQMLGRLIPEKQILSDQLKQVQQNSLHRDSLLTLKRALEAKELARQQLREQLDEVEKETRSKLQEIDVFNNQLKELREIHSKQQLQKQRSIEAERLKQKEQERKSLELEKQKEEGQRRVQERDKQWQEHVQQEEQQRPRKPHEEDKLKREDSVKKKEAEERAKPEVQDKQSRLFHPHQEPAKPAQAPWPTTEKGPLTISAQESAKVVYYRALYPFESRSHDEITIQPGDIVMVKGEWVDESQTGEPGWLGGELKGKTGWFPANYAEKIPENEIPTPAKPVTDLTSAPAPKLALRETPAPLPVTSSEPSTTPNNWADFSSTWPSSTNEKPETDNWDTWAAQPSLTVPSAGQLRQRSAFTPATATGSSPSPVLGQGEKVEGLQAQALYPWRAKKDNHLNFNKSDVITVLEQQDMWWFGEVQGQKGWFPKSYVKLISGPVRKSTSIDTGPTEAPSSLKRVASPAAKPAIPGEEFVAMYTYESSEHGDLTFQQGDVIVVTKKDGDWWTGTVGETSGVFPSNYVRLKDSEGSGTAGKTGSLGKKPEIAQVIASYTATGPEQLTLAPGQLILIRKKNPGGWWEGELQARGKKRQIGWFPANYVKLLSPGTSKITPTELPKTAVQPAVCQVIGMYDYTAQNDDELAFSKGQIINVLSKEDPDWWKGEVSGQVGLFPSNYVKLTTDMDPSQQ |  | 0.83 |  |
| B1 |  |  | fractional recovery (FR; recovery at 1150 mM salt / recovery at 150 mM salt) (heavy chain clathrin): 0.78; fractional recovery (FR; recovery at 1150 mM salt / recovery at 150 mM salt) (AP180): 1 ± 0.17 |
| synaptotagmin 1 (natural protein, UniProt P21707 1-421, looked up, synaptotagmin 1, endogenous in synaptosomes from brains of 2-10 day old Sprague Dawley rats; also called STG; STG 1; source: endogenous, rat brain synaptosome lysate) MVSASHPEALAAPVTTVATLVPHNATEPASPGEGKEDAFSKLKQKFMNELHKIPLPPWALIAIAIVAVLLVVTCCFCVCKKCLFKKKNKKKGKEKGGKNAINMKDVKDLGKTMKDQALKDDDAETGLTDGEEKEEPKEEEKLGKLQYSLDYDFQNNQLLVGIIQAAELPALDMGGTSDPYVKVFLLPDKKKKFETKVHRKTLNPVFNEQFTFKVPYSELGGKTLVMAVYDFDRFSKHDIIGEFKVPMNTVDFGHVTEEWRDLQSAEKEEQEKLGDICFSLRYVPTAGKLTVVILEAKNLKKMDVGGLSDPYVKIHLMQNGKRLKKKKTTIKKNTLNPYYNESFSFEVPFEQIQKVQVVVTVLDYDKIGKNDAIGKVFVGYNSTGAELRHWSDMLANPRRPIAQWHTLQVEEEVDAMLAVKK |  | 0.98 |  |

Reference: PMC1762330, “‘Fractional Recovery’ Analysis of a Presynaptic Synaptotagmin 1-Anchored Endocytic Protein Complex” (PLoS ONE, 2006)
